Test results reported in patent publication US20040009571A1 (published 2004).
Numbering of substitutions follows the chain as printed. Names may count otherwise.

What was measured:
[1] = molecular target: STAT1 N-domain (S12A) (human) (UniProt P42224); experiment: analytical ultracentrifugation, sedimentation equilibrium; self-association
[2] = molecular target: the molecule itself; experiment: analytical ultracentrifugation, sedimentation equilibrium; self-association (monomer 15,223 Da)
Method: (§1) As described below, point mutations in STAT1 were introduced at several sites at each of Interface I and II. The point mutation introduced in each of the STAT1 N-domain mutant proteins is indicated in the first column. The approximate molecular weight estimated by sedimentation equilibrium experiments, and migration as a monomer or dimer species on gel filtration analysis, is shown for each mutant protein.
(§2) For gel filtration analysis, 1.5 mg of purified STAT N domain protein in a volume of 500 μl was run on a 120 ml Superdex 75 column at a flow rate of 0.5 ml/min, in 50 mM Tris, pH 8.0, 100 mM NaCl and 1 mM DTT. Equilibrium sedimentation experiments were performed using a Beckman Optima XL-A analytical ultracentrifuge with an An-60 Ti rotor and six-sector cells. STAT N-domain proteins at concentrations of 0.65, 0.32 and 0.16 mg/ml were centrifuged in the gel filtration buffer, at 25,000 rev/min. at 4° C. for 20 h. Subsequently, absorbance measurements at 280 nm were taken in 0.001 cm radial steps and equilibrium was ascertained by comparing scans taken at 1 h intervals. The Optima XL-A/XL-I data analysis software from Beckman Coulter was used for data processing and curve fitting. A partial specific volume of 0.73 cm³/g was used and background absorbance was corrected empirically by allowing the baseline to float during the fitting calculations.

[3] = molecular target: the molecule itself; experiment: analytical ultracentrifugation, sedimentation equilibrium; self-association
Method: as §1, §2

[4] = molecular target: the molecule itself; experiment: gel filtration on Superdex 75 (self-association)
Method: as §2

[5] = molecular target: the molecule itself; experiment: analytical ultracentrifugation, sedimentation equilibrium (self-association)
Excerpt: Not only is Interface II more extensive than Interface I, it also involves interactions between hydrophobic residues (unlike the essentially polar nature of Interface I). Certain residues at interface II were individually replaced by Ala (Table 1) and the mutant STAT N-domains were examined for dimerization. […] The results for mutations at the other side of the interface provide evidence for interference with dimer formation. M28A migrated as an intermediate between dimer and monomer on gel filtration analysis, but appeared as a dimer by analytical ultracentrifugation analysis. […] The hydrophobic nature of the residues at positions 77 and 78 is conserved between STAT1 and STAT4, which has leucine residues at both positions. Likewise, Met 28 is conserved in STAT4.
For gel filtration analysis, 1.5 mg of purified STAT N domain protein in a volume of 500 μl was run on a 120 ml Superdex 75 column at a flow rate of 0.5 ml/min, in 50 mM Tris, pH 8.0, 100 mM NaCl and 1 mM DTT. […] Subsequently, absorbance measurements at 280 nm were taken in 0.001 cm radial steps and equilibrium was ascertained by comparing scans taken at 1 h intervals. […] A partial specific volume of 0.73 cm³/g was used and background absorbance was corrected empirically by allowing the baseline to float during the fitting calculations.

Q: “STAT1 N-domain (S12A) (from UniProt P42224 1-124)” was tested. Which molecular weight by sedimentation equilibrium [1] did it give?
A: 17 kDa

B1: wild type STAT1 N-domain (human STAT1 amino acid residues 1 to 124) (other, UniProt P42224 1-124, looked up)
chain: MSQWYELQQLDSKFLEQVHQLYDDSFPMEIRQYLAQWLEKQDWEHAANDVSFATIRFHDLLSQLDDQYSRFSLENNFLLQHNIRKSKRNLQDNFQEDPIQMSMIIYSCLKEERKILENAQRFNQ
notes: range 1-124; Expressed in E. coli as a GST fusion and released with TEV protease; also called N-domain of human STAT1
Q: Which “molecular weight by sedimentation equilibrium” value (“molecular weight” below) [2] does the source give for B1 here?
A: ~28 kDa

B2: STAT1 N-domain (W37F) (other, human, UniProt P42224 1-124, looked up)
chain: B1 chain with W37F
notes: range 1-124; Interface I mutant; GST fusion cleaved with TEV protease; also called N-domain of STAT1 (W37F)
Q: Which “molecular weight” value [3] does the source give for B2 here?
A: ~28 kDa

B3: STAT1 N-domain (F77A) (other, human, UniProt P42224 1-124, looked up)
chain: B1 chain with F77A
notes: range 1-124; Interface II mutant; GST fusion cleaved with TEV protease; Its CD spectrum was identical to wild type; also called STAT1 F77A
Q: Does B3 bind [4]?
A: no binding (tested: 1.5 mg in 500 µl)

Q: What about the “molecular weight” value [2] of the same molecule?
A: ~15 kDa

B4: STAT1 N-domain (Q41A) (other, human, UniProt P42224 1-124, looked up)
chain: B1 chain with Q41A
notes: range 1-124; Interface I mutant; GST fusion cleaved with TEV protease
Q: How did the “molecular weight” value [3] turn out when B4 was run?
A: ~27 kDa

B5: STAT1 N-domain (R70A) (other, human, UniProt P42224 1-124, looked up)
chain: B1 chain with R70A
notes: as for B4
Q: For B5, which “molecular weight” value [3] is on record?
A: ~27 kDa

B6: STAT1 N-domain (Q8A) (other, human, UniProt P42224 1-124, looked up)
chain: B1 chain with Q8A
notes: range 1-124; Interface II mutant; GST fusion cleaved with TEV protease
Q: Which “molecular weight” value [3] does the source give for B6 here?
A: ~27 kDa

B7: STAT1 N-domain (L78A) (other, human, UniProt P42224 1-124, looked up)
chain: B1 chain with L78A
notes: range 1-124; Interface II mutant; GST fusion cleaved with TEV protease; Its CD spectrum was identical to wild type; also called STAT1 L78A
Q: Which results are given for B7?
A: binding result [5]: no binding (tested: 0.65, 0.32 and 0.16 mg/ml); molecular weight by sedimentation equilibrium [2]: ~15 kDa

B8: STAT1 N-domain (Q36A) (other, human, UniProt P42224 1-124, looked up)
chain: B1 chain with Q36A
notes: as for B4
Q: For B8, which “molecular weight” value [3] is on record?
A: ~29 kDa

B9: STAT1 N-domain (L15A) (other, human, UniProt P42224 1-124, looked up)
chain: B1 chain with L15A
notes: as for B6
Q: With B9 as the molecule, how does the “molecular weight” value [3] read?
A: ~28 kDa

B10: STAT1 N-domain (M28A) (other, human, UniProt P42224 1-124, looked up)
chain: B1 chain with M28A
notes: as for B6
Q: B10 was tested. Which “molecular weight” value [3] did it give?
A: ~26 kDa

B11: STAT1 N-domain (E29A) (other, human, UniProt P42224 1-124, looked up)
chain: B1 chain with E29A
notes: as for B6
Q: With B11 as the molecule, how does the “molecular weight” value [3] read?
A: ~27 kDa
